Test results reported in US20180355338A1.

Experiments:
[1] = biological target: TY-145 protease variant K146A, S173P, S175P, F180Y (Bacillus sp. TY-145); test: Ki fitted from Suc-AAPF-pNA activity; Tris buffer pH 8; ratio against m3 (without K146A)
[2] = biological target: TY-145 protease variant S27K, I150N, S171N, S173P, G174R, S175P, F180Y, Q198E, T297P (Bacillus sp. TY-145); test: Ki fitted from Suc-AAPF-pNA activity; Model B detergent; ratio against m4 (without I150N)
[3] = biological target: TY-145 protease variant S173P, S175P, I178P, F180Y (Bacillus sp. TY-145); test: Ki fitted from Suc-AAPF-pNA activity; Model B detergent; ratio against m3 (without I178P)
[4] = biological target: TY-145 protease variant K146W, S173P, S175P, F180Y (Bacillus sp. TY-145); test: Ki fitted from Suc-AAPF-pNA activity; Tris buffer pH 8; ratio against m3 (without K146W)
[5] = biological target: TY-145 protease variant S173P, S175P, F180Y, R224D (Bacillus sp. TY-145); test: Ki fitted from Suc-AAPF-pNA activity; Model B detergent; ratio against m3 (without R224D)
[6] = biological target: TY-145 protease variant K146N, S173P, S175P, F180Y (Bacillus sp. TY-145); test: Ki fitted from Suc-AAPF-pNA activity; Model B detergent; ratio against m3 (without K146N)
[7] = biological target: TY-145 protease variant S173P, S175P, F180Y, R224S (Bacillus sp. TY-145); test: Ki fitted from Suc-AAPF-pNA activity; Model B detergent; ratio against m3 (without R224S)
[8] = biological target: TY-145 protease variant S27K, V162T, S173P, G174K, S175P, F180Y, L184F, Q197K, Q198E, T297P (Bacillus sp. TY-145); test: Ki fitted from Suc-AAPF-pNA activity; Model B detergent; ratio against m14 (without L184F)
[9] = biological target: TY-145 protease variant S27K, S171N, S173P, G174R, S175P, F180Y, L184Y, Q198E, T297P (Bacillus sp. TY-145); test: Ki fitted from Suc-AAPF-pNA activity; Model B detergent; ratio against m4 (without L184Y)
[10] = biological target: TY-145 protease variant K146W, S173P, S175P, F180Y (Bacillus sp. TY-145); test: Ki fitted from Suc-AAPF-pNA activity; Model B detergent; ratio against m3 (without K146W)
[11] = biological target: TY-145 protease (mature, SEQ ID NO: 3) (Bacillus sp. TY-145); test: Ki fitted from Suc-AAPF-pNA activity; Model B detergent; the reference itself (TY145 backbone)
[12] = biological target: TY-145 protease variant I150N, S173P, S175P, F180Y (Bacillus sp. TY-145); test: Ki fitted from Suc-AAPF-pNA activity; Tris buffer pH 8; ratio against m3 (without I150N)
[13] = biological target: TY-145 protease variant I150A, S173P, S175P, F180Y (Bacillus sp. TY-145); test: Ki fitted from Suc-AAPF-pNA activity; Tris buffer pH 8; ratio against m3 (without I150A)
[14] = biological target: TY-145 protease variant S27K, S171N, S173P, G174R, S175P, F180Y, Q198E, N199K, R224G, T297P (Bacillus sp. TY-145); test: Ki fitted from Suc-AAPF-pNA activity; Model B detergent; ratio against m11 (without R224G)
[15] = biological target: TY-145 protease variant S173P, S175P, I178F, F180Y (Bacillus sp. TY-145); test: Ki fitted from Suc-AAPF-pNA activity; Model B detergent; ratio against m3 (without I178F); second row of the same variant
[16] = biological target: TY-145 protease variant K146N, S173P, S175P, F180Y (Bacillus sp. TY-145); test: Ki fitted from Suc-AAPF-pNA activity; Tris buffer pH 8; ratio against m3 (without K146N)
[17] = biological target: TY-145 protease variant S27K, I121V, S171N, S173P, G174R, S175P, F180Y, L184F, Q198E, T297P (Bacillus sp. TY-145); test: Ki fitted from Suc-AAPF-pNA activity; Model B detergent; ratio against m6 (without L184F)
[18] = biological target: TY-145 protease variant S27K, S171N, S173P, G174R, S175P, F180Y, G182A, L184F, Q198E, N199K, R224G, T297P (Bacillus sp. TY-145); test: Ki fitted from Suc-AAPF-pNA activity; Model B detergent; ratio against m13 (without R224G)
[19] = biological target: TY-145 protease variant K146F, S173P, S175P, F180Y (Bacillus sp. TY-145); test: Ki fitted from Suc-AAPF-pNA activity; Model B detergent; ratio against m3 (without K146F)
[20] = biological target: TY-145 protease variant S114Q, S173P, S175P, F180Y (Bacillus sp. TY-145); test: Ki fitted from Suc-AAPF-pNA activity at 8 inhibitor concentrations; Model B detergent; ratio against m3 (without S114Q)
[21] = biological target: TY-145 protease variant I150N, S173P, S175P, F180Y (Bacillus sp. TY-145); test: Ki fitted from Suc-AAPF-pNA activity; Model B detergent; ratio against m3 (without I150N)
[22] = biological target: TY-145 protease variant S27K, Q70N, G107N, I121V, E127Q, S173P, S175P, F180Y, L184F, Q198E, T297P (Bacillus sp. TY-145); test: Ki fitted from Suc-AAPF-pNA activity; Model B detergent; ratio against m7 (without L184F)
[23] = biological target: TY-145 protease variant K146F, S173P, S175P, F180Y (Bacillus sp. TY-145); test: Ki fitted from Suc-AAPF-pNA activity; Tris buffer pH 8; ratio against m3 (without K146F)
[24] = biological target: TY-145 protease variant S27K, S173P, G174K, S175P, F180Y, L184Y, Q197K, Q198E, T297P (Bacillus sp. TY-145); test: Ki fitted from Suc-AAPF-pNA activity; Model B detergent; ratio against m10 (without L184Y)

Z-Gly-Ala-NHCH(CH2C6H4pOH)C(OH)(SO3Na)-H, wherein Z is benzyloxycarbonyl (peptide)
relative Ki mutation [1]: 0.29 | relative Ki mutation [2]: 0.24 | relative Ki mutation [3]: 0.51 | relative Ki mutation [4]: 0.16 | relative Ki mutation [5]: 0.36 | relative Ki mutation [6]: 0.93 | relative Ki mutation [7]: 0.5 | relative Ki mutation [8]: 0.17 | relative Ki mutation [9]: 0.18 | relative Ki mutation [10]: 0.23 | IF (binding constant improvement factor, relative Ki) [11]: 1 | relative Ki mutation [12]: 0.21 | relative Ki mutation [13]: 0.4 | relative Ki mutation [14]: 0.74 | relative Ki mutation [15]: 0.49 | relative Ki mutation [16]: 0.91 | relative Ki mutation [17]: 0.3 | relative Ki mutation [18]: 0.69 | relative Ki mutation [19]: 0.25 | relative Ki mutation [20]: 0.63 | relative Ki mutation [21]: 0.35 | relative Ki mutation [22]: 0.37 | relative Ki mutation [23]: 0.19 | relative Ki mutation [24]: 0.32
